Molecular target: mycGluA2 (recombinant) (UniProt P19491)
Test: co-IP with flag antibody, myc-GluA2 blot
Conditions: reference: wild type; sites Y421,Y466,Y482

binding against the reference: stronger
Substance: flag-cortactin (recombinant) (from UniProt Q60598) Y421F/Y466F/Y482F (TYM)

Source: paper PMC5841360
